Laboratory results taken from patent US20070134248A1 (GENITOPE, published 2007).

B1: mAb clone 4H11 (antibody, V domains shown)
VH: EVKLVESGGGLVKPGGSLKLSCAASGFAFSNYDMSWVRQTPEKRLEWVATIRSDDSYTYYPDSVKGRFTISRDNARNTLYLQMSSLRSEDTAFYYCARREGNYAMDYWGQGTSVTVSS
VL: DIQMTQSPASLSVSVGETVTITCRASENIYSYLAWYQQKKGKSPQLLVYAATNLGDGVPTRFSGSGSGTQYSLKINSLQSEDFGSYYCQHFWGNPLTFGAGTKLELKR
notes: mouse hybridoma mAb
B2: mAb clone 15E8 (antibody, V domains shown)
VH: QVQLQQPGAELVMPGASVKMSCKASGYTFTDYWMHWVKQRPGQGLEWIGTIDTSDSYTNYNQKFKGKATLTVDESSSTAYMQLSSLTSEDSAVYYCVRWKKYGNYFFDYWGQGTTLTVSS
VL: DIVMTQSHKFMSTSVGDRVSITCKASQDVNTAVAWYQQKPGQSPKLLIYWASTRHTGVPDRFTGSGSGTDFSLTISSVQAEDLGLYYCQQCYSTPYAFGGGTKLEIKR
notes: mouse hybridoma mAb from fusion 16 (immunogen unconjugated fully human PIN116)
B3: mAb clone 3C9 (antibody, V domains shown)
VH: EVQLQQSGPELEKPGASVKISCKASGYSFTAYNMNWVKQNNGKSLEWIGNIDPYHGGTNYNQKFKGKATLTVDKSSSTAYMQLKSLTSEDYAVYYCARGGGDWSWFAYWGQGTLVTVSA
VL: DIVMTQSHKFMSTSVGDRVSITCKASQDVNTAVAWYQQKPGQSPKVLIYWASNRHTGVPDRFTGSGSGTDYTLTISSMQAEDLALYYCHQHYSTPWTFGGGTKLEIER
B4: mAb clone 12C3 (antibody, V domains shown)
VH: EVKLVESGGGLVQPGGSLSLSCAASGFTYTDYYMNWVRQPPGKALEWLALIRNKANGYTTEYSASLKGRFTISRDNSQSILYLQMNALRAEDSATYYCVRENINYYFDYWGQGTTLTVSS
VL: DIVLTQSPASLAVSLGQRATISCRASESVEYFGASLMQWYQQKSGQPPKLLIRAATNVESGVPARFSGSGSGTDFSLNIHPVEEDDIAMYFCQQSRKVPWTFGGGTKLEIKR
notes: mouse hybridoma mAb from fusions 20/21 (PIN628 V regions as immunogen)
B5: mAb clone 20H5 (antibody, V domains shown)
VH: QVQLKESGPDLVAPSQSLSITCTVSGFSLTSYGVHWVRQPPGKGLEWLVVIWSDGSTTNNSPLKSRLSISKDNSKSQVFLKMNSLQTDDTAMYYCARHWGTTVVDAMDYWGQGTSVTVSS
VL: DIQMTQTTSSLSASLGDRVIISCRASQDIRNYLNWYQQKPDGTVKLLIYYTSQLHSGVPSRFSGSGSGTDYSLTINNLSEQEDIATYFCQQYDTLPWTFGGGTKLEIKR
notes: mouse hybridoma mAb from fusion 10 (immunogen fully human PIN574 Id protein)
B6: mAb clone 10H7 (antibody, V domains shown)
VH: EVQLVESGGGLVKPGGSLKLSCTASGFTFSSYAMSWVRQSPEKRLEWVAEISSGGIHTYYSDTVTGRFSISRDNAKNSTLYLEMNSLRSEDTAIYYCARETTGTWGQGTLVTVSA
VL: QIVLTQSPAIMSASPGEKVTMTCSVSSSITYMHWFRQKPGTSPKLWIYTTSNLASGVPARFSGSGSGTSYSLTISRMEAEDAATYYCQQRSRYPFTFGSGTKLEIKR
notes: mouse hybridoma mAb from fusion 14 (immunogen PIN149 chimera-KLH)

Assays:
116 = target: T1, 116; assay: ELISA
T1 construct: immunogen of fusions 15, 16 and 18; coated in its fully human form; also called PIN116; PIN116 fully human Id protein (HV1-46 / LV2-8)
T1 sequence (VH, as listed by the source, chain 1 of 2): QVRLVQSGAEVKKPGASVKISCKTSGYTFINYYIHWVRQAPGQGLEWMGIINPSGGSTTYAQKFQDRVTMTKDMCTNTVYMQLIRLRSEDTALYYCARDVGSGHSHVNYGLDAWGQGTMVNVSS
T1 sequence (V domain, as listed by the source, chain 2 of 2): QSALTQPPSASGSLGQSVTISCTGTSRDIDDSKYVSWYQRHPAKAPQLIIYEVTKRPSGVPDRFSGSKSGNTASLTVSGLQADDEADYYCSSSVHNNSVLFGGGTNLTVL
Source text: (§1) Before specificity screening, all of the clonal immunogen-positive hybridoma supernatants were re-screened on the immunogen, a non-family member Id protein, and KLH, if animals were immunized with Id protein that has been conjugated KLH. As described above, this screen identifies HC-specific clones but not mAbs against the light chain constant region. Clones identified positive to the immunogen and KLH were […]. Those found positive to the immunogen but not to the non-family member Id protein or KLH were tittered on the immunogen. In addition to normalizing for different binding affinities and concentrations, each hybridoma supernatant was titered on the fully human form of the Id protein used as the immunogen(s) for the V regions. The titer or dilution resulting in an ELISA absorbance of 2.5 to 3 OD after 30 min. incubation time was then used. Hybridoma specificity was determined by screening against available Id proteins expressing the same HV and KV or LV as well as different HV, KV and LV. The final ELISA results are expressed as follows: 0 (<0.5 OD),1 (0.5-1.0 OD), or 4 (1-4 OD). Positive hybridoma supernatants are categorized according to specificity: anti-Id, anti-constant region (HC, KC or LC), or V region (HV, KV, LV family or family member).
(§2) In general, the fully human Id protein or proteins containing the immunogen V regions were coated onto 96-well ELISA plates at 2.5-5 ug/mL in carbonate buffer pH 9.6 and incubated at 4° C. for up to 14 days. On the day of the ELISA, plates were brought to RT and blocked with Tris-Tween-20, pH 7.6 for 15-60 min. at RT. Following a NaCl and Triton X-100 wash, diluted hybridoma cell culture supernatants were incubated overnight at 4° C. Hybridoma supernatant dilutions ranged from 1:2 to 1:25 and were prepared in PBS with 5% BSA. Plates were washed and incubated with HRP-conjugated goat anti-mouse IgG-specific detecting antibody. A chromogenic substrate (TMB) was used to measure the amount of mouse antibody bound to each well. The reaction was stopped at or before 30 minutes with IN H2SO4 and plates were read immediately. Absorbency readings at 450 nm ranging between 0-4 OD and using Molecular Devices plate reader and SOFTMAX PRO software.

662 = target: T2, 662; assay: ELISA
T2 construct: also called PIN662; PIN662 fully human Id protein (HV3-48 / LV2-8)
T2 sequence (heavy, as listed by the source): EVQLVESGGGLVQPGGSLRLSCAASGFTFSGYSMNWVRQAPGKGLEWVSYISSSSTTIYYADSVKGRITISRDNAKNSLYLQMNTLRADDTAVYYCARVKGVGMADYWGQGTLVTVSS
Source text: as §1, §2

[1] = target: T3, PIN574 fully human Id protein (HV4-39 / LV1-40) (human); assay: ELISA
T3 construct: patient tumour-derived idiotype immunoglobulin used as antigen; fully human form; also called Immunogen (for 20H5); not shown: human immunoglobulin heavy chain constant region, isotype G3 (HCG3); human lambda light chain constant region (LC)
T3 sequence (VH, as listed by the source, chain 1 of 2): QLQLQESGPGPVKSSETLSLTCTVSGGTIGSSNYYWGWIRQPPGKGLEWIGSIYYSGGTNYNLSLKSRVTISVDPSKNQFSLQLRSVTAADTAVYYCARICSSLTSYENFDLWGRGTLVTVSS
T3 sequence (VL, as listed by the source, chain 2 of 2): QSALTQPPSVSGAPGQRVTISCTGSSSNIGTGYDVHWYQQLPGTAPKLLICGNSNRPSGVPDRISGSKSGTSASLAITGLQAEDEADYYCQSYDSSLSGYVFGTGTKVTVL
Source text: as §1, §2

647 = target: T4, 647; assay: ELISA
T4 construct: immunogen of fusion 17; also called PIN647; PIN647 fully human Id protein (HV3-48 / LV2-14)
T4 sequence (VH, as listed by the source, chain 1 of 2): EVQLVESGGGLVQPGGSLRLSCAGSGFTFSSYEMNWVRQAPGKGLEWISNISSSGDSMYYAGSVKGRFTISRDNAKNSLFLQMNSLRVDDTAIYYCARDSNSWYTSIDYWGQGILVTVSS
T4 sequence (VL, as listed by the source, chain 2 of 2): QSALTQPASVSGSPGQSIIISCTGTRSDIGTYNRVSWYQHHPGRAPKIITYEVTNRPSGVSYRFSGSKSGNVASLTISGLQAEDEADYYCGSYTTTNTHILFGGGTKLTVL
Source text: as §1, §2

[2] = target: T5, PIN149 fully human Id protein (HV3-23 / KV4-1) (human); assay: SPR (BIACORE 2000), mAb captured on anti-mouse surface, fully human Id protein as analyte, 25 C, single site model
T5 construct: patient tumour-derived idiotype immunoglobulin used as antigen; recombinant, two identical heavy and two identical light chains; also called Immunogen (for 3C9, 6C9, 10H7, 15E1); not shown: human immunoglobulin heavy chain constant region, isotype G3 (HCG3); human kappa light chain constant region (KC)
T5 sequence (VH, as listed by the source, chain 1 of 2): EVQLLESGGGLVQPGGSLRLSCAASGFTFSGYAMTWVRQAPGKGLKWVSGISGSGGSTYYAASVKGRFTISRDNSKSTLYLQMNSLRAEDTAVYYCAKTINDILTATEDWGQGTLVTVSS
T5 sequence (VL, as listed by the source, chain 2 of 2): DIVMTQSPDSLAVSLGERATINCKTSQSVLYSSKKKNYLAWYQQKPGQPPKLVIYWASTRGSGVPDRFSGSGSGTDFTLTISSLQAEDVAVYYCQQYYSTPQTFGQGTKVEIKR
Method: (§3) Binding constants were also determined for three of the sequenced clones (3C9, 10H7, and 20H5), as well as for two additional clones (6C9 and 15E1). The association and disassociation rates were measured by surface plasmon resonance using a BIACORE 2000 machine.
(§4) In addition, based on ELISA results, PIN185 was used as a positive control Id protein for 10H7 and 15E1 and a negative control Id protein for 3C9 and 6C9 and PIN149 was used as a non-binding Id protein for 20H5. Each mAb was captured onto an anti-mouse surface and tested for binding to the fully human Id protein. Following the mAb capture phase of the assay for the (@2 ug/ml), the fully human Id proteins were all diluted to a starting concentration of 250 nM and tested in a three fold dilution series. Each concentration was tested in duplicate. The running buffer contained PBS plus 0.005% tween-20 and 0.1 mg/ml BSA as a carrier. Binding data were collected at 25° C. […] The other data sets all fit well to a single site interaction model.

628 = target: T6, 628; assay: ELISA
T6 construct: immunogen of fusions 20 and 21; also called PIN628; PIN628 fully human Id protein (HV3-7 / KV4-1)
T6 sequence (VH, as listed by the source, chain 1 of 2): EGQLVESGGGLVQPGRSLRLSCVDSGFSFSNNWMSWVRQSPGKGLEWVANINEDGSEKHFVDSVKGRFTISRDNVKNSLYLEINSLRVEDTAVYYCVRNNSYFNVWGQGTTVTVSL
T6 sequence (VL, as listed by the source, chain 2 of 2): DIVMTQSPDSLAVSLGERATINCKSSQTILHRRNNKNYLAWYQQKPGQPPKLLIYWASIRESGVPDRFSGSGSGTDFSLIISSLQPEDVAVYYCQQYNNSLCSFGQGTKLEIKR
Source text: as §1, §2

913 = target: T7, 913; assay: ELISA
T7 construct: also called PIN913; PIN913 fully human Id protein (HV4-59 / KV4-1)
T7 sequence (heavy, as listed by the source): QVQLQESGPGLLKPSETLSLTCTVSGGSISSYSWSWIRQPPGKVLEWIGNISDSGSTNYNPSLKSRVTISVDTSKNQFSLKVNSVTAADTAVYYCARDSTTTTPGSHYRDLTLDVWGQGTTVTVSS
Source text: as §1, §2

[3] = target: T8, PIN185 fully human Id protein (human); assay: ELISA
T8 construct: patient idiotype immunoglobulin used as control antigen
Source text: as §1, §2

[4] = target: T5, PIN149 fully human Id protein (HV3-23 / …); assay: SPR (BIACORE 2000), mAb captured on anti-mouse surface, fully human Id protein as analyte
Method: as §3, §4

[5] = target: T3, PIN574 fully human Id protein (HV4-39 / …); assay: SPR (BIACORE 2000), mAb captured on anti-mouse surface, fully human Id protein as analyte, 25 C, single site model
Method: as §3, §4

[6] = target: T5, PIN149 fully human Id protein (HV3-23 / …); assay: ELISA
Source text: as §1, §2

[7] = target: T8, PIN185 fully human Id protein; assay: SPR (BIACORE 2000), mAb captured on anti-mouse surface, fully human Id protein as analyte, 25 C, single site model
Method: as §3, §4

Binder	ELISA score 662	Kd [2]	koff [2]	kon [2]	ELISA score 628	ELISA score 913	ELISA score [3]	also measured
B1	4	–	–	–	–	–	–	binding result 116: no binding; ELISA score [1]: 4
B2	4	–	–	–	–	–	–	ELISA score 116: 4; binding result 647: no binding; binding result [1]: no binding
B3	–	1.78 nM	0.000134 s⁻¹	74900 M⁻¹ s⁻¹	–	–	–	–
B4	–	–	–	–	4	4	4	–
B5	–	–	–	–	–	–	–	binding result [4]: no binding; Kd [5]: 1.92 nM; koff [5]: 0.000146 s⁻¹; kon [5]: 75900 M⁻¹ s⁻¹
B6	–	0.83 nM	3.8e-05 s⁻¹	45400 M⁻¹ s⁻¹	4	4	4	ELISA score [6]: 4; Kd [7]: 3 nM; koff [7]: 9.9e-05 s⁻¹; kon [7]: 33200 M⁻¹ s⁻¹
